Among the data in publication PMC6943196 are stoichiometry N values, retold here.

In this experiment the target is Tolypothrix sp. PCC 7601 Orange Carotenoid Protein 1 (OCP1) (Tolypothrix sp. PCC 7601). In words: crystal structure.

The stoichiometry N is a count of units in the complex or per binding partner. In turn, “Tolypothrix sp. PCC 7601 Orange Carotenoid Protein 1 (OCP1) (natural protein)” came in with a stoichiometry N of 2.
